The values that follow come from PMC8811837 (Advanced Science, 2021).

The target of this test is T1, σ70 (E. coli, UniProt P00579).
T1 construct: also called σR4 (region 4); σ70 R4
The test is described as follows: cryo-EM structure. To be noted: both partners purified.

T1 sequence (P00579 whole entry): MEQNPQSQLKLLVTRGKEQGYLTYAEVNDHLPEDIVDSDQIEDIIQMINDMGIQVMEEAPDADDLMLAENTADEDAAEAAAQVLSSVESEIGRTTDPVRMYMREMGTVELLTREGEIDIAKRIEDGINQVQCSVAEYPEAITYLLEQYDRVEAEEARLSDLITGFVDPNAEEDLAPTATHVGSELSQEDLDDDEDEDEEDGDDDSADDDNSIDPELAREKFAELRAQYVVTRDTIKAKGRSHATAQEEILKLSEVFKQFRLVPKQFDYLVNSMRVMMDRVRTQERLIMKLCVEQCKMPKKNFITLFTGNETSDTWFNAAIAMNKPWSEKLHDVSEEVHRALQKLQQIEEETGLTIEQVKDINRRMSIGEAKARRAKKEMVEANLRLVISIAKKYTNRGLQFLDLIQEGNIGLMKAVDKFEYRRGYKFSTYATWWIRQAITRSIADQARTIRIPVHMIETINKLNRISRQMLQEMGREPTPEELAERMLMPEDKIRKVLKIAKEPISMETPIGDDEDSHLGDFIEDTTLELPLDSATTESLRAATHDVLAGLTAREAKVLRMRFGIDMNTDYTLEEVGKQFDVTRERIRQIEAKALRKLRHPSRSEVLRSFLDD

B1: RamA (natural protein)
chain: MTISAQVIDTIVEWIDDNLHQPLRIDDIARHAGYSKWHLQRLFLQYKGESLGRYIRERKLLLAARDLRDTDQRVYDICLKYGFDSQQTFTRVFTRTFNQPPGAYRKENHSRAH
Take B1: the binding result is listed as “binds”.
